Assay results: article PMC9949273 (The Journal of Cell Biology, 2023)

B1: GST-tagged ATL3 (natural protein, human, UniProt Q6DD88 1-541, looked up)
chain: MLSPQRVAAAASRGADDAMESSKPGPVQVVLVQKDQHSFELDEKALASILLQDHIRDLDVVVVSVAGAFRKGKSFILDFMLRYLYSQKESGHSNWLGDPEEPLTGFSWRGGSDPETTGIQIWSEVFTVEKPGGKKVAVVLMDTQGAFDSQSTVKDCATIFALSTMTSSVQIYNLSQNIQEDDLQQLQLFTEYGRLAMDEIFQKPFQTLMFLVRDWSFPYEYSYGLQGGMAFLDKRLQVKEHQHEEIQNVRNHIHSCFSDVTCFLLPHPGLQVATSPDFDGKLKDIAGEFKEQLQALIPYVLNPSKLMEKEINGSKVTCRGLLEYFKAYIKIYQGEDLPHPKSMLQATAEANNLAAAASAKDIYYNNMEEVCGGEKPYLSPDILEEKHCEFKQLALDHFKKTKKMGGKDFSFRYQQELEEEIKELYENFCKHNGSKNVFSTFRTPAVLFTGIVALYIASGLTGFIGLEVVAQLFNCMVGLLLIALLTWGYIRYSGQYRELGGAIDFGAAYVLEQASSHIGNSTQATVRDAVVGRPSMDKKAQ

Tests used:
[1] = target: ATL2-1 (major splice isoform of ATL2) (human, UniProt Q8NHH9 1-583); assay: cross-linking
GST-tagged ATL3 = target: B1; assay: pull-down

binding result [1]	binding result (GST-tagged ATL3)	Binder
binds		B1
	binds	His6-tagged N-terminal cytoplasmic domain of ATL2 (1–480) (domain or fragment, human, UniProt Q8NHH9 1-480, looked up) MAEGDEAARGQQPHQGLWRRRRTSDPSAAVNHVSSTTSLGENYEDDDLVNSDEVMKKPCPVQIVLAHEDDHNFELDEEALEQILLQEHIRDLNIVVVSVAGAFRKGKSFLLDFMLRYMYNKDSQSWIGGNNEPLTGFTWRGGCERETTGIQVWNEVFVIDRPNGTKVAVLLMDTQGAFDSQSTIKDCATVFALSTMTSSVQVYNLSQNIQEDDLQHLQLFTEYGRLAMEEIYQKPFQTLMFLIRDWSYPYEHSYGLEGGKQFLEKRLQVKQNQHEELQNVRKHIHNCFSNLGCFLLPHPGLKVATNPSFDGRLKDIDEDFKRELRNLVPLLLAPENLVEKEISGSKVTCRDLVEYFKAYIKIYQGEELPHPKSMLQATAEANNLAAVAGARDTYCKSMEQVCGGDKPYIAPSDLERKHLDLKEVAIKQFRSVKKMGGDEFCRRYQDQLEAEIEETYANFIKHNDGKNIFYAARTPATLFA
